# Reference: paper PMC6224091
# B1: V5-Par6A (wild type) [not stated] / YFP-Tuba [not stated] (parent)
# chain 1: MARPQRTPARSPDSIVEVKSKFDAEFRRFALPRASVSGFQEFSRLLRAVHQIPGLDVLLGYTDAHGDLLPLTNDDSLHRALASGPPPLRLLVQKRAEADSSGLAFASNSLQRRKKGLLLRPVAPLRTRPPLLISLPQDFRQVSSVIDVDLLPETHRRVRLHKHGSDRPLGFYIRDGMSVRVAPQGLERVPGIFISRLVRGGLAESTGLLAVSDEILEVNGIEVAGKTLDQVTDMMVANSHNLIVTVKPANQRNNVVRGASGRLTGPPSAGPGPAEPDSDDDSSDLVIENRQPPSSNGLSQGPPCWDLHPGCRHPGTRSSLPSLDDQEQASSGWGSRIRGDGSGFSL
# chain 2: MEAGSVVRAIFDFCPSVSEELPLFVGDIIEVLAVVDEFWLLGKKEDVTGQFPSSFVEIVTIPSLKEGERLFVCICEFTSQELDNLPLHRGDLVILDGIPTAGWLQGRSCWGARGFFPSSCVRELCLSSQSRQWHSQSALFQIPEYSMGQARALMGLSAQLDEELDFREGDVITIIGVPEPGWFEGELEGRRGIFPEGFVELLGPLRTVDESVSSGNQDDCIVNGEVDTPVGEEEIGPDEDEEEPGTYGVALYRFQALEPNELDFEVGDKIRILATLEDGWLEGSLKGRTGIFPYRFVKLCPDTRVEETMALPQEGSLARIPETSLDCLENTLGVEEQRHETSDHEAEEPDCIISEAPTSPLGHLTSEYDTDRNSYQDEDTAGGPPRSPGVEWEMPLATDSPTSDPTEVVNGISSQPQVPFHPNLQKSQYYSTVGGSHPHSEQYPDLLPLEARTRDYASLPPKRMYSQLKTLQKPVLPLYRGSSVSASRVVKPRQSSPQLHNLASYTKKHHTSSVYSISERLEMKPGPQAQGLVMEAATHSQGDGSTDLDSKLTQQLIEFEKSLAGPGTEPDKILRHFSIMDFNSEKDIVRGSSKLITEQELPERRKALRPPPPRPCTPVSTSPHLLVDQNLKPAPPLVVRPSRPAPLPPSAQQRTNAVSPKLLSRHRPTCETLEKEGPGHMGRSLDQTSPCPLVLVRIEEMERDLDMYSRAQEELNLMLEEKQDESSRAETLEDLKFCESNIESLNMELQQLREMTLLSSQSSSLVAPSGSVSAENPEQRMLEKRAKVIEELLQTERDYIRDLEMCIERIMVPMQQAQVPNIDFEGLFGNMQMVIKVSKQLLAALEISDAVGPVFLGHRDELEGTYKIYCQNHDEAIALLEIYEKDEKIQKHLQDSLADLKSLYNEWGCTNYINLGSFLIKPVQRVMRYPLLLMELLNSTPESHPDKVPLTNAVLAVKEINVNINEYKRRKDLVLKYRKGDEDSLMEKISKLNIHSIIKKSNRVSSHLKHLTGFAPQIKDEVFEETEKNFRMQERLIKSFIRDLSLYLQHIRESACVKVVAAVSMWDVCMERGHRDLEQFERVHRYISDQLFTNFKERTERLVISPLNQLLSMFTGPHKLVQKRFDKLLDFYNCTERAEKLKDKKTLEELQSARNNYEALNAQLLDELPKFHQYAQGLFTNCVHGYAEAHCDFVHQALEQLKPLLSLLKVAGREGNLIAIFHEEHSRVLQQLQVFTFFPESLPATKKPFERKTIDRQSARKPLLGLPSYMLQSEELRASLLARYPPEKLFQAERNFNAAQDLDVSLLEGDLVGVIKKKDPMGSQNRWLIDNGVTKGFVYSSFLKPYNPRRSHSDASVGSHSSTESEHGSSSPRFPRQNSGSTLTFNPSSMAVSFTSGSCQKQPQDASPPPKECDQGTLSASLNPSNSESSPSRCPSDPDSTSQPRSGDSADVARDVKQPTATPRSYRNFRHPEIVGYSVPGRNGQSQDLVKGCARTAQAPEDRSTEPDGSEAEGNQVYFAVYTFKARNPNELSVSANQKLKILEFKDVTGNTEWWLAEVNGKKGYVPSNYIRKTEYT
# Variants of: B1
# Experiment: co-immunoprecipitation (IP: GFP), quantified blot
# Conditions: with YFP-Tuba; HEK293T cells; co-expressed with HA-Cdc42(G12V); n = 4; parent: 1; read off a plot
row,ratio to parent,Variant
1,0.73,chain 1 MARPQRTPARSPDSIVEVKSKFDAEFRRFALPRASVSGFQEFSRLLRAVHQIPGLDVLLGYTDAHGDLLPLTNDDSLHRALASGPPPLRLLVQKRAEADSSGLAFASNSLQRRKKGLLLRPVAPLRTRPPLLAALPQDFRQVSSVIDVDLLPETHRRVRLHKHGSDRPLGFYIRDGMSVRVAPQGLERVPGIFISRLVRGGLAESTGLLAVSDEILEVNGIEVAGKTLDQVTDMMVANSHNLIVTVKPANQRNNVVRGASGRLTGPPSAGPGPAEPDSDDDSSDLVIENRQPPSSNGLSQGPPCWDLHPGCRHPGTRSSLPSLDDQEQASSGWGSRIRGDGSGFSL [chain 1 I133A S134A]
